The values that follow come from patent US20030032045.

This data set concerns the target in vitro translated, 35S-labeled PARP (full length human poly(ADP-ribose) polymerase), P09874.

in vitro translated, 35S-labeled PARP (full length human poly(ADP-ribose) polymerase), P09874, sequence (P09874 whole entry, looked up): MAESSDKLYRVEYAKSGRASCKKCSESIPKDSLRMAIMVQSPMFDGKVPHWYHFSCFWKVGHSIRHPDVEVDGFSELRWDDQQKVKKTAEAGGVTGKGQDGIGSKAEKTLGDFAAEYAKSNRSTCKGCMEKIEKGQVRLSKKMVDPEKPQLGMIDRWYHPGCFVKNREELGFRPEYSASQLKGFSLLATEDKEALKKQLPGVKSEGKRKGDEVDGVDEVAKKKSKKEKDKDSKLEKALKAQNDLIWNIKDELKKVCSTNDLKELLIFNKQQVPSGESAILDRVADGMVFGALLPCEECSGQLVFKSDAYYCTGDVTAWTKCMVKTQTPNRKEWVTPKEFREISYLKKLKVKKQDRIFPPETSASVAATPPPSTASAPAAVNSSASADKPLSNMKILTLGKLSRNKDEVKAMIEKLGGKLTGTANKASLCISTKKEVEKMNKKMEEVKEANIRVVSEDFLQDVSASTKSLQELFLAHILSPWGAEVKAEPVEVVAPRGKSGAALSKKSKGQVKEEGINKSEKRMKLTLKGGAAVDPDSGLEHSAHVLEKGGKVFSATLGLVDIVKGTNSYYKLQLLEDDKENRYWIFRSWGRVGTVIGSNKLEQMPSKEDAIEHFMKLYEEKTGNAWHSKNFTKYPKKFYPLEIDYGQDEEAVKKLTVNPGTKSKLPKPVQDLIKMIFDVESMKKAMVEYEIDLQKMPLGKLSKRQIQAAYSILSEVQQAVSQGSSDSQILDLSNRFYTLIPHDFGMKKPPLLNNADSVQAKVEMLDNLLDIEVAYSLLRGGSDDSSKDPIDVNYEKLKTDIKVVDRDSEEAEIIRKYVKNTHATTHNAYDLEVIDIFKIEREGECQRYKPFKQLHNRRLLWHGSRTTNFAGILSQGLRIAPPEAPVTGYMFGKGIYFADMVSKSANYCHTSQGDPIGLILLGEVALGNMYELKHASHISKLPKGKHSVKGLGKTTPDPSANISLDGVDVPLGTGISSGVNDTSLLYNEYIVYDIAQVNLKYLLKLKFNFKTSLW

B1: CPP32 (endogenous, in HeLa cell S-100) (protein)
chain: MENTENSVDSKSIKNLEPKIIHGSESMDSGISLDNSYKMDYPEMGLCIIINNKNFHKSTGMTSRSGTDVDAANLRETFRNLKYEVRNKNDLTREEIVELMRDVSKEDHSKRSSFVCVLLSHGEEGIIFGTNGPVDLKKITNFFRGDRCRSLTGKPKLFIIQACRGTELDCGIETDSGVDDDMACHKIPVEADFLYAYSTAPGYYSWRNSKDGSWFIQSLCAMLKQYADKLEFMHILTRVNRKVATEFESFSFDATFHAKKQIPCIVSMLTKELYFYH
For the protein B1, the “cleavage of 35S-labeled PARP (SDS-PAGE, autoradiography)” value was “The activated extracts readily cleaved PARP into 85 kDa and 24 kDa fragments”.
